{"source": "patent US20100272723A1", "about": "(Xencor, published 2010)", "binders": {"B1": {"name": "H1.52 / L1 (antibody, V domains shown)", "VH": "EVQLVESGGGLVKPGGSLKLSCAASGYTFTSYVMHWVRQAPGKGLEWIGYINPYNDGTKYNEKFQGRVTISSDKSISTAYMELSSLRSEDTAMYYCARGTYYYGTRVFDYWGQGTLVTVSS", "VL": "DIVMTQSPATLSLSPGERATLSCRSSKSLLNSNGNTYLYWFQQKPGQSPQLLIYRMSNLASGVPDRFSGSGSGTEFTLTISSLEPEDFAVYYCMQHLEYPFTFGAGTKLEIK", "notes": "vs H1L1 (Kabat): VH S100cT; also called 4G7 H1.52_L1"}, "B2": {"name": "H1.52 / L1.139 (antibody, V domains shown)", "VH": "B1 VH", "VL": "B1 VL with S32V, F101N", "notes": "vs H1L1 (Kabat): VH S100cT; VL S27eV/F96N; also called 4G7 H1.52_L1.139"}, "B3": {"name": "H1.52 / L1.149 (antibody, V domains shown)", "VH": "B1 VH", "VL": "B1 VL with L30Q, A60N, F101I", "notes": "vs H1L1 (Kabat): VH S100cT; VL L27cQ/A55N/F96I; also called 4G7 H1.52_L1.149"}, "B4": {"name": "H1.144 / L1 (antibody, V domains shown)", "VH": "B1 VH with T105S, D109N", "VL": "B1 VL", "notes": "vs H1L1 (Kabat): VH D101N; also called 4G7 H1.144_L1"}, "B5": {"name": "H1.146 / L1 (antibody, V domains shown)", "VH": "B1 VH with T105S, D109H", "VL": "B1 VL", "notes": "vs H1L1 (Kabat): VH D101H; also called 4G7 H1.146_L1"}, "B6": {"name": "H1.65 / L1 (antibody, V domains shown)", "VH": "B1 VH with T105S, R106S", "VL": "B1 VL", "notes": "vs H1L1 (Kabat): VH R100dS; also called 4G7 H1.65_L1"}, "B7": {"name": "H1.52 / L1.155 (antibody, V domains shown)", "VH": "B1 VH", "VL": "B1 VL with L30Q, S32V, A60N, F101I", "notes": "vs H1L1 (Kabat): VH S100cT; VL L27cQ/S27eV/A55N/F96I; also called 4G7 H1.52_L1.155"}, "B8": {"name": "H1.78 / L1 (antibody, V domains shown)", "VH": "B1 VH with D56A, T105S", "VL": "B1 VL", "notes": "vs H1L1 (Kabat): VH D55A; also called 4G7 H1.78_L1"}, "B9": {"name": "H1.109 / L1 (antibody, V domains shown)", "VH": "B1 VH with T58P, T105S", "VL": "B1 VL", "notes": "vs H1L1 (Kabat): VH T57P; also called 4G7 H1.109_L1"}, "B10": {"name": "H1 / L1.11 (antibody, V domains shown)", "VH": "B1 VH with T105S", "VL": "B1 VL with E98N", "notes": "vs H1L1 (Kabat): VL E93N; also called 4G7 H1_L1.11"}, "B11": {"name": "H1 / L1.124 (antibody, V domains shown)", "VH": "B1 VH with T105S", "VL": "B1 VL with L59W", "notes": "vs H1L1 (Kabat): VL L54W; also called 4G7 H1_L1.124"}, "B12": {"name": "H1.52 / L1.143 (antibody, V domains shown)", "VH": "B1 VH", "VL": "B1 VL with L30Q, A60N", "notes": "vs H1L1 (Kabat): VH S100cT; VL L27cQ/A55N; also called 4G7 H1.52_L1.143"}, "B13": {"name": "H1.113 / L1 (antibody, V domains shown)", "VH": "B1 VH with T58H, T105S", "VL": "B1 VL", "notes": "vs H1L1 (Kabat): VH T57H; also called 4G7 H1.113_L1"}, "B14": {"name": "H1.52 / L1.160 (antibody, V domains shown)", "VH": "B1 VH", "VL": "B1 VL with L30Q, S32V, G34A, A60N, F101I", "notes": "vs H1L1 (Kabat): VH S100cT; VL L27cQ/S27eV/G29A/A55N/F96I; also called 4G7 H1.52_L1.160"}, "B15": {"name": "H1.52 / L1.145 (antibody, V domains shown)", "VH": "B1 VH", "VL": "B1 VL with L30Q, F101I", "notes": "vs H1L1 (Kabat): VH S100cT; VL L27cQ/F96I; also called 4G7 H1.52_L1.145"}, "B16": {"name": "H1.62 / L1 (antibody, V domains shown)", "VH": "B1 VH with T105S, R106E", "VL": "B1 VL", "notes": "vs H1L1 (Kabat): VH R100dE; also called 4G7 H1.62_L1"}, "B17": {"name": "H1.52 / L1.138 (antibody, V domains shown)", "VH": "B1 VH", "VL": "B1 VL with S32V, A60N", "notes": "vs H1L1 (Kabat): VH S100cT; VL S27eV/A55N; also called 4G7 H1.52_L1.138"}, "B18": {"name": "H1.60 / L1 (antibody, V domains shown)", "VH": "B1 VH with T105L", "VL": "B1 VL", "notes": "vs H1L1 (Kabat): VH S100cL; also called 4G7 H1.60_L1"}}, "note": "Residue numbers refer to the chain shown, from its start. Names and notes keep the numbering of the source."}
{"molecular_target": "T1, human CD19 (human, UniProt P15391 20-556)", "T1 construct": "also called B-cell surface antigen B4; B-cell antigen CD19", "T1 sequence": "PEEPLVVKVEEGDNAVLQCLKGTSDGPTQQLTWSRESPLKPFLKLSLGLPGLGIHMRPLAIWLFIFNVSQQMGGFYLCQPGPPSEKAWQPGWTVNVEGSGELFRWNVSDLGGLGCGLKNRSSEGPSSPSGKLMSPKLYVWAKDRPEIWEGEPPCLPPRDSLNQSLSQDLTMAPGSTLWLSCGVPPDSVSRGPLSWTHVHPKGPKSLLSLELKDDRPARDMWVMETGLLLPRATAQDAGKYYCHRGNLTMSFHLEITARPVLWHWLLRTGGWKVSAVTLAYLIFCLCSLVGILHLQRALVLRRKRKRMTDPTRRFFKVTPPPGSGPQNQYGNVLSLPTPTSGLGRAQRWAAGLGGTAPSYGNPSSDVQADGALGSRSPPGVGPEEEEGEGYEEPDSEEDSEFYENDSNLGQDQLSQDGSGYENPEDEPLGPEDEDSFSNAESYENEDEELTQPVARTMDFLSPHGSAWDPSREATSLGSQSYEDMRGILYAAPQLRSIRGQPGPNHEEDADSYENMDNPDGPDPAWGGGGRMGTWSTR", "assay": "binding affinity relative to the parent H1L1 mAb (Example 5); assay and format not named on the sheet", "units": {"Fold change binding": "fold"}}
{"binder": "B1", "Fold change binding": 3.22}
{"binder": "B2", "Fold change binding": 1.8}
{"binder": "B3", "Fold change binding": 8.6}
{"binder": "B4", "Fold change binding": 2.26}
{"binder": "B5", "Fold change binding": 2.45}
{"binder": "B6", "Fold change binding": 1.41}
{"binder": "B7", "Fold change binding": 6.16}
{"binder": "B8", "Fold change binding": 1.14}
{"binder": "B9", "Fold change binding": 1.52}
{"binder": "B10", "Fold change binding": 1.59}
{"binder": "B11", "Fold change binding": 1.47}
{"binder": "B12", "Fold change binding": 3.83}
{"binder": "B13", "Fold change binding": 1.29}
{"binder": "B14", "Fold change binding": 4.18}
{"binder": "B15", "Fold change binding": 6.41}
{"binder": "B16", "Fold change binding": 1.65}
{"binder": "B17", "Fold change binding": 3.93}
{"binder": "B18", "Fold change binding": 1.56}
